# Results from PMC3197598.
# pKd: −log10 of the molar value.
# Target: fibrin (human fibrinogen treated with alpha-thrombin) (human) (UniProt P02679)
# Assay: ELISA; human fibrinogen coated overnight on MaxSorb 96-well plates, wells treated with PBS (fibrinogen) or 100 nM alpha-thrombin in 1% sodium-citrate/PBS for one hour at room temperature (fibrin); ClfA in 1% sodium-citrate added at increasing concentrations for one hour; bound ClfA detected with polyclonal anti-ClfA and anti-rabbit-HRP; non-linear regression, one-site saturation
# clumping factor A (ClfA), purified recombinant, sequence (Q53653 40-899): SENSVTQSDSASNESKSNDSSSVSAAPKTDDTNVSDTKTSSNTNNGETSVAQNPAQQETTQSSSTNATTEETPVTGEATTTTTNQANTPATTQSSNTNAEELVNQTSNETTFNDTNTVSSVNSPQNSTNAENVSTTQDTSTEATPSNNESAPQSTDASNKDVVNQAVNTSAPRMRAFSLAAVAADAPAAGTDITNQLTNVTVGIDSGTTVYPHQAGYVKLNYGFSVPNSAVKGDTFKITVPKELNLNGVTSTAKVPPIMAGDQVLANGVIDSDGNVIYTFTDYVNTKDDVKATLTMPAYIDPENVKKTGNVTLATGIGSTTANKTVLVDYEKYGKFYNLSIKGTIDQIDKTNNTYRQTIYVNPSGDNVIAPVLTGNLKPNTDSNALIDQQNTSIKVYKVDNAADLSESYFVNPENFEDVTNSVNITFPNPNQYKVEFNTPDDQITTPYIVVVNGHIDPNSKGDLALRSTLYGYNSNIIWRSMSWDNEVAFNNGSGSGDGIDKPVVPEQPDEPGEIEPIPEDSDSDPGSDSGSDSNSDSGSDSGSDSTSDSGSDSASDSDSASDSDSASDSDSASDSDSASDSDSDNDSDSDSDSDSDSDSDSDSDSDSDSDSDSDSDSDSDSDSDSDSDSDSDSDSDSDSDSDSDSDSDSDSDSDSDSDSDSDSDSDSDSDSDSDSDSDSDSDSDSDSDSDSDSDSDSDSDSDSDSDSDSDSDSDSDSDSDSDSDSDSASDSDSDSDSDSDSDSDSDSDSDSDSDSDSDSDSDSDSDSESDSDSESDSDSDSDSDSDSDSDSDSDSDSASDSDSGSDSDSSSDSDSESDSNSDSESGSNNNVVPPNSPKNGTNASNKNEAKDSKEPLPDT
substance,measurement,value
"clumping factor A (ClfA), purified recombinant (from UniProt Q53653 40-899) (natural protein)",pKd,6.18
